Experimental data as given in US12258605B2, “Alkane oxidation by modified hydroxylases” (The California Institute of Technology, priority 2005, dated 2025).
Entries after “also recorded” stand apart in the source; their conditions may differ.

Tests used:
Reactions on laurate = type: biochemical; conditions: laurate 2 mM, 5 hours, room temperature
Description: Reactions on laurate. P450PMO activity on laurate was tested mixing the substrate (2 mM) with purified protein (up to 0.5 μM) in 100 mM KPi pH 8.0 buffer, and adding NADPH to final concentration of 1 mM. Reaction mixtures were incubated for 5 hours at room temperature under gentle stirring. Analysis of the hydroxylated products was carried out by derivatization with N-methyl-N-trimethylsilylheptafluorobutyramide (Aldrich) followed by GC analysis according to a published procedure. A control experiment was carried out using wild-type P450BM3.
Products from alkane reactions were identified and quantified by gas chromatography using authentic standards and calibration curves with internal standards. For the reactions with alkanes from pentane to decane, GC analyses were carried out using a Shimadzu GC-17A gas chromatograph, Agilent HP5 column (30 m×0.32 mm×0.1 μm film), 1 μL injection, FID detector, and the following separation program: 250° C. inlet, 250° C. detector, 50° C. oven for 3 min, 5° C./min gradient to 100° C., 25° C./min gradient to 230° C., and 230° C. for 3 min. […] Organic solutions were analyzed by FID-GC. […]

[1] = Substrate profile on C2 to C10 alkanes (TTN normalized, MTN); type: biochemical; conditions: highest TTN in the alkane series
Description: Reactions on alkanes. Reactions with alkanes from pentane to decane were carried out at 3 mL-scale using 100 mM KPi pH 8.0 buffer containing 2% ethanol (to allow alkane solubilization) and purified protein. 2.5 mL KPi buffer were added with 60 μL of 90 mM alkane solution in ethanol (final conc.=1.8 mM), 150 μL enzyme solution at 1 μM (final conc.=50 nM), and 300 μL NADPH regeneration solution (100 units/mL isocitrate dehydrogenase, 70 mg/mL isocitrate, 1.5 mg/ml NADP^+). Vials were sealed and stirred for 24 hours at 4° C. 1 mL-aliquot of the reaction was removed, added with 10 μl internal standard (25 mM 1-bromohexane in ethanol), and extracted with 200 μl chloroform (30 sec vortexing, 1 min centrifugation at 10000 g). The organic phase was removed and analyzed by gas chromatography. Reactions with ethane, propane, and butane were carried out as described for longer alkanes with the only difference that alkane-saturated KPi buffer was used. […] Propane and butane reactions were analyzed by direct injection of reaction solution on the GC using 1-pentanol as internal standard. Ethane reaction products were functionalized (see below) and analyzed by GC using 1-butanol as internal standard. […]
TTNs for each variant-substrate pair were determined using standardized reaction conditions (identical enzyme and substrate concentration, incubation time, cofactor regeneration system) (Table 18). […]

[2] = lauric acid; cited from earlier work
[3] = myristate; cited from earlier work

B1: P450PMO: P450 BM-3 variant, SEQ ID NO:125; 7-7 plus G443A and D698G; propane monooxygenase (protein)
chain: TIKEMPQPKTFGELKNLPLLNTDKPVQALMKIADELGEIFKFEAPGCVTRYISSQRLIKEACDESRFDKNLSQELKFFRDFGGDGLFTSWTHEINWKKAHNILLPSFSQQAMKGYHAMMVDIAVQLVQKWERLNADEHIEVSEDMTRLTLDTIGLCGFNYRFNSFYRDQPHPFIISMVRALDEVMNKPQRANPDDPAYDENKRQCQEDIKVMNDLVDKIIADRKARGEQSDDLLTQMLNGKDPETGEPLDDGNISYQIITFLIAGHETTSGLLSFALYFLVKNPHVLQKVVEEAARVLVDPVPSYKQVKQLKYVGMVLNEALRLWPTFPAFSLYAKEDTVLGGEYPLEKGDEVMVLIPQLHRDKTVWGDDVEEFRPERFENPSAIPQHAFKPFGNGQRACIGQQFALHEATLVLGMMLKHFDFEDHTNYELDIKETLTLKPEAFVVKAKSKKIPLGGIPSPSTGQSAKKVRKKAENAHNTPLLVLYGSNMGTAEGTARDLADIAMSKGFAPQVATLDSHAGNLPREGAVLIVTASYNGHPPDNAKQFVDWLDQASADEVKGVRYSVFGCGDKNWATTYQKVPAFIDETLAAKGAENIADRGEADASDDFEGTYEEWREHMWSDVAAYFNLDIENSEDNKSTLSLQFVDSAADMPLAKMHGAFSTNVVASKELQQPGSARSTRHLEIELPKEASYQEGGHLGVIPRNYEGTVNRVTARFGLDASQQIRLEAEEEKLAHLPLAKTVSVEELLQYVELQDPVTRTQLRAMAAKTVCPPHKVELEALLEKQAYKEQVLAKRLTMLELLEKYPACEMKFSEFIALLPSIRPRYYSISSSPRVDEKQASITVSVVSGEAWSGYGEYKGIASNYLAELQEGDTITCFISTPQSEFTLPKDPETPLIMVGPGTGVAPFRGFVQARKQLKEQGQSLGEAHLYFGCRSPHEDYLYQEELENAQSEGIITLHTAFSRMPNQPKTYVQHVMEQDGKKLIELLDQGAHFYICGDGSQMAPAVEATLMKSYADVHQVSEADARLWLQQLEEKGRYAKDVWAG
modifications: Mutant P450PMO protein sequence
notes: 7-7 plus G443A and D698G; propane monooxygenase
hydroxylation products of laurate (Reactions on laurate): no hydroxylation product could be detected; also recorded: no detectable amounts of hydroxylated fatty acids

B2: Wild-type BM-3: wild-type cytochrome P450 BM-3 from Bacillus megaterium, SEQ ID NO:1 (protein, listed as Bacillus megaterium)
chain: TIKEMPQPKTFGELKNLPLLNTDKPVQALMKIADELGEIFKFEAPGRVTRYLSSQRLIKEACDESRFDKNLSQALKFVRDFAGDGLFTSWTHEKNWKKAHNILLPSFSQQAMKGYHAMMVDIAVQLVQKWERLNADEHIEVPEDMTRLTLDTIGLCGFNYRFNSFYRDQPHPFITSMVRALDEAMNKLQRANPDDPAYDENKRQFQEDIKVMNDLVDKIIADRKASGEQSDDLLTHMLNGKDPETGEPLDDENIRYQIITFLIAGHETTSGLLSFALYFLVKNPHVLQKAAEEAARVLVDPVPSYKQVKQLKYVGMVLNEALRLWPTAPAFSLYAKEDTVLGGEYPLEKGDELMVLIPQLHRDKTIWGDDVEEFRPERFENPSAIPQHAFKPFGNGQRACIGQQFALHEATLVLGMMLKHFDFEDHTNYELDIKETLTLKPEGFVVKAKSKKIPLGGIPSPSTEQSAKKVRKKAENAHNTPLLVLYGSNMGTAEGTARDLADIAMSKGFAPQVATLDSHAGNLPREGAVLIVTASYNGHPPDNAKQFVDWLDQASADEVKGVRYSVFGCGDKNWATTYQKVPAFIDETLAAKGAENIADRGEADASDDFEGTYEEWREHMWSDVAAYFNLDIENSEDNKSTLSLQFVDSAADMPLAKMHGAFSTNVVASKELQQPGSARSTRHLEIELPKEASYQEGDHLGVIPRNYEGIVNRVTARFGLDASQQIRLEAEEEKLAHLPLAKTVSVEELLQYVELQDPVTRTQLRAMAAKTVCPPHKVELEALLEKQAYKEQVLAKRLTMLELLEKYPACEMKFSEFIALLPSIRPRYYSISSSPRVDEKQASITVSVVSGEAWSGYGEYKGIASNYLAELQEGDTITCFISTPQSEFTLPKDPETPLIMVGPGTGVAPFRGFVQARKQLKEQGQSLGEAHLYFGCRSPHEDYLYQEELENAQSEGIITLHTAFSRMPNQPKTYVQHVMEQDGKKLIELLDQGAHFYICGDGSQMAPAVEATLMKSYADVHQVSEADARLWLQQLEEKGRYAKDVWAG
hydroxylation products of laurate (Reactions on laurate): multiple hydroxylation products were detected
MTN (Maximal Turnover Number) [1]: 150
hydroxylation at the ω-1 position [2]: 48%
Coupling efficiency [3]: 88%
